The record followed here is patent US20100104564A1 (published 2010).

Sequences and labels used below:
B1: anti-CD30 antibody (5F11) variant E345W (antibody)
heavy: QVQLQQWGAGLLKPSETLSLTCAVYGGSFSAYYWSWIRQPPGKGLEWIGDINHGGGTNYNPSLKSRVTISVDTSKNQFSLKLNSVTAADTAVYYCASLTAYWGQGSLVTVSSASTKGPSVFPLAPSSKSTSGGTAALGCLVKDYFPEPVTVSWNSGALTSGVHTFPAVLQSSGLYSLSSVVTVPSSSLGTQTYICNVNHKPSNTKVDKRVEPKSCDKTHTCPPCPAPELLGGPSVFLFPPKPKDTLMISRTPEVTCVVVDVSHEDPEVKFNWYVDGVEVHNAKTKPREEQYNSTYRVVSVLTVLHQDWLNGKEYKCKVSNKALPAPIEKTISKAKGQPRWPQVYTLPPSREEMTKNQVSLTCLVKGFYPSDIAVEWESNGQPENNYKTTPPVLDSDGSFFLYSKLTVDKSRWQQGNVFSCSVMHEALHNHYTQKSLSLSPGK
light: DIQMTQSPTSLSASVGDRVTITCRASQGISSWLTWYQQKPEKAPKSLIYAASSLQSGVPSRFSGSGSGTDFTLTISSLQPEDFATYYCQQYDSYPITFGQGTRLEIKRTVAAPSVFIFPPSDEQLKSGTASVVCLLNNFYPREAKVQWKVDNALQSGNSQESVTEQDSKDSTYSLSSTLTLSKADYEKHKVYACEVTHQGLSSPVTKSFNRGEC
notes: Single Fc substitution in the 5F11 antibody; EU numbering, not the numbering of the UniProt entry
B2: anti-CD30 antibody (5F11) variant P247I (antibody)
heavy: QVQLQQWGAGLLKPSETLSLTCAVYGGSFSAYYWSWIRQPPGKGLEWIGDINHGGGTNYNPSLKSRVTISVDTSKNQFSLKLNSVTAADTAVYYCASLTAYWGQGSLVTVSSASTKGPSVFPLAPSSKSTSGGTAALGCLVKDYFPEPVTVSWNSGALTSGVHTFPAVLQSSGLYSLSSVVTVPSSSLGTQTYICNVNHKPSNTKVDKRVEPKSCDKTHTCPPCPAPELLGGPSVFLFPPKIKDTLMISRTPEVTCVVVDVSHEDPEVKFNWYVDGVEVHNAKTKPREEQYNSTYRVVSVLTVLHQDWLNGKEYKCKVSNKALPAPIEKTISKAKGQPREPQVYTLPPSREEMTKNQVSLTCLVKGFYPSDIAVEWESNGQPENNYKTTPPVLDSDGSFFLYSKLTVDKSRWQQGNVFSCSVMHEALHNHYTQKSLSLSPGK
light: B1 light
notes: Single Fc substitution in the 5F11 antibody; EU numbering, not the numbering of the UniProt entry; copies: 2 + 2
B3: anti-CD30 antibody (5F11) variant F404W (antibody)
heavy: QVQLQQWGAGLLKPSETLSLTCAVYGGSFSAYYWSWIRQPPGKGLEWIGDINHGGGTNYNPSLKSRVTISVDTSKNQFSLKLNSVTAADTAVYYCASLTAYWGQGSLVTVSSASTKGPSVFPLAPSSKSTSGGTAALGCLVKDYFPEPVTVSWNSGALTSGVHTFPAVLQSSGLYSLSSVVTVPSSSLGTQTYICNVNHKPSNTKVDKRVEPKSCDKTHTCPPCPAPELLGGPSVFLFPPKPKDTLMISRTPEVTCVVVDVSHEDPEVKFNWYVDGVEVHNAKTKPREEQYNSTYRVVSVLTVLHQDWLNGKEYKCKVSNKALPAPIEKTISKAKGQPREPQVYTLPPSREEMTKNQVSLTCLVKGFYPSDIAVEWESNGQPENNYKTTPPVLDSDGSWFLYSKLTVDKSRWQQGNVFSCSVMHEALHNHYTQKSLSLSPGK
light: B1 light
notes: as for B2
B4: anti-CD30 antibody (5F11) variant S254W (antibody)
heavy: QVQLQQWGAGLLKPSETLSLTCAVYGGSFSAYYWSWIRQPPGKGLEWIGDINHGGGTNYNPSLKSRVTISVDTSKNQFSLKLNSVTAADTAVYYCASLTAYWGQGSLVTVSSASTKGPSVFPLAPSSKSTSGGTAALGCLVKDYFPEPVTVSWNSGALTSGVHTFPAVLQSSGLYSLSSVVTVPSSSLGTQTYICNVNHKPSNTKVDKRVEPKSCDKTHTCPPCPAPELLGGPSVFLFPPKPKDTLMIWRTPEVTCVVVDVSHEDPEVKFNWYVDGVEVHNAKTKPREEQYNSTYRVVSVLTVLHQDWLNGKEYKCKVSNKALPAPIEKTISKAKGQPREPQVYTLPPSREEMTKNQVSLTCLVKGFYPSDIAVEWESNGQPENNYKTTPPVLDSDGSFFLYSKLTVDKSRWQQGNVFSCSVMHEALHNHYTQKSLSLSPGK
light: B1 light
notes: as for B2
B5: anti-CD30 antibody (5F11) variant A378P (antibody)
heavy: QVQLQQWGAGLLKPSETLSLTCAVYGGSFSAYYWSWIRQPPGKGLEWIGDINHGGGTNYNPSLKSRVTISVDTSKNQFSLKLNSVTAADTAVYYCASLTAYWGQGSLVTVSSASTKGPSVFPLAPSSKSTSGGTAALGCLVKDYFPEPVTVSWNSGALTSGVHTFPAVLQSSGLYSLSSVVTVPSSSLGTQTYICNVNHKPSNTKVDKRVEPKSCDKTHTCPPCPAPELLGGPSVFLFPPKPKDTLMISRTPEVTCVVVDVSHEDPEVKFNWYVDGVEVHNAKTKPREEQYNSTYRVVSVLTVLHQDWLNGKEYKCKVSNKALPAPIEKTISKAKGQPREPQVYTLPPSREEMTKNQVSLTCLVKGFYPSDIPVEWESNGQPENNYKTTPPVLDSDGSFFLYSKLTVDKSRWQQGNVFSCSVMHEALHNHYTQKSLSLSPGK
light: B1 light
notes: as for B2
B6: anti-CD30 antibody (5F11) variant G446W (antibody)
heavy: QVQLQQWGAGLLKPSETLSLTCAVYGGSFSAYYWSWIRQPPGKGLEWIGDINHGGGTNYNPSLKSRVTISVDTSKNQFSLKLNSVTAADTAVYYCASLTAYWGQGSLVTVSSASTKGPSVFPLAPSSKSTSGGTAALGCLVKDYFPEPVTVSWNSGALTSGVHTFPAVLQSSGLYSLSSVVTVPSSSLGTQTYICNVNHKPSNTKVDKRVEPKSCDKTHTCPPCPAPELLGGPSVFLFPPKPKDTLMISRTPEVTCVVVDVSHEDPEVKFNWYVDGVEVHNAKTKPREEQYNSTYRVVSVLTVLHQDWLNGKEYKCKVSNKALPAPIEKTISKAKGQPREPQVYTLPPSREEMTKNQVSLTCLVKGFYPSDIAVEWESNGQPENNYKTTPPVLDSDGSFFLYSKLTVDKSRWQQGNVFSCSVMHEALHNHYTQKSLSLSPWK
light: B1 light
notes: as for B2
B7: anti-CD30 antibody (5F11) variant S426W (antibody)
heavy: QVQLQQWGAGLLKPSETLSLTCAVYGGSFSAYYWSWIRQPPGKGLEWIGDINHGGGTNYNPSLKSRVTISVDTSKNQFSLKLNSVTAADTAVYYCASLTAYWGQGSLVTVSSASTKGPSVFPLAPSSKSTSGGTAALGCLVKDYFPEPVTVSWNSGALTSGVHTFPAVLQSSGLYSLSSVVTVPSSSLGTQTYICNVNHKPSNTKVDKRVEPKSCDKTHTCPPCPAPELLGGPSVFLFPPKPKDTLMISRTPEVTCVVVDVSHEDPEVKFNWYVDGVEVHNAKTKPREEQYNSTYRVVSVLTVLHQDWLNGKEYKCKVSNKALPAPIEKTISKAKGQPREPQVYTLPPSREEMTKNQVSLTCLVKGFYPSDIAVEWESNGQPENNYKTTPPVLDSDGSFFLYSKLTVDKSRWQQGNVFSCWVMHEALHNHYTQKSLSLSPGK
light: B1 light
notes: as for B2
B8: anti-CD30 antibody (5F11) variant D376T (antibody)
heavy: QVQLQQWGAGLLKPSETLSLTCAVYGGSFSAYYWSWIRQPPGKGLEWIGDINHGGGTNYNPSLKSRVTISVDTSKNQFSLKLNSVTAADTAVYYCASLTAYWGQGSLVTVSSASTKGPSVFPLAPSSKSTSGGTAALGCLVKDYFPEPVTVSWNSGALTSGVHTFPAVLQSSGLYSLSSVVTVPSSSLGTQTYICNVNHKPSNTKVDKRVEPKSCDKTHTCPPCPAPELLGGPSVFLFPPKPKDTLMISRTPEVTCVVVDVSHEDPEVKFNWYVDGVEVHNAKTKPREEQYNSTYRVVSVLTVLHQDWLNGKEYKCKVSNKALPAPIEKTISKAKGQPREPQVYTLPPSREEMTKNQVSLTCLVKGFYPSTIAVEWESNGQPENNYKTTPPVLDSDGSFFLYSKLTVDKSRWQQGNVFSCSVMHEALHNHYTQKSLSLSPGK
light: B1 light
notes: as for B2
B9: anti-CD30 antibody (5F11) variant P396I (antibody)
heavy: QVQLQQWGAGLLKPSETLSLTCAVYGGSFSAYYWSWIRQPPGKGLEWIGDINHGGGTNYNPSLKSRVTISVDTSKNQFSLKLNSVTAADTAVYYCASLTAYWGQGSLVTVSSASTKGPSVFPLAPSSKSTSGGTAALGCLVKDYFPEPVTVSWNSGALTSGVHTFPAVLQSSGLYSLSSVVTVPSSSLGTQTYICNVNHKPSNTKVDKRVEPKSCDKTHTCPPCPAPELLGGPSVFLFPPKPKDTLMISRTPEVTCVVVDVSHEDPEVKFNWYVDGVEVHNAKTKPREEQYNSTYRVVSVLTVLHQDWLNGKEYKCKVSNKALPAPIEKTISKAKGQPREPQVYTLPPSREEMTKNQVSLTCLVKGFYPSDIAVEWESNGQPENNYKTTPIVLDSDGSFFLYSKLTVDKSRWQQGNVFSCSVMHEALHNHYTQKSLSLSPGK
light: B1 light
notes: as for B2
B10: anti-CD30 antibody (5F11) variant S354R (antibody)
heavy: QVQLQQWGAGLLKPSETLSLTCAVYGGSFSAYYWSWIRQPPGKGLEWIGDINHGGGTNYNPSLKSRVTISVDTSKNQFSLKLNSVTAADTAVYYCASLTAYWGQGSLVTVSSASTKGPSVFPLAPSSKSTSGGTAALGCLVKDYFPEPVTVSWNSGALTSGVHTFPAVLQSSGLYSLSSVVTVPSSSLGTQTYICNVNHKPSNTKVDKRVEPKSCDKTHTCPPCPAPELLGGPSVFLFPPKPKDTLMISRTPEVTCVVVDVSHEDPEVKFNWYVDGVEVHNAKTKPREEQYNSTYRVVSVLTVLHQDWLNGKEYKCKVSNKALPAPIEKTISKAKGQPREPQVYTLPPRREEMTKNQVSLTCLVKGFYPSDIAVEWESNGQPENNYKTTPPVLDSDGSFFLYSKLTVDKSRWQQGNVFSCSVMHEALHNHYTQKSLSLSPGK
light: B1 light
notes: as for B2
B11: anti-CD30 antibody (5F11) variant E356K (antibody)
heavy: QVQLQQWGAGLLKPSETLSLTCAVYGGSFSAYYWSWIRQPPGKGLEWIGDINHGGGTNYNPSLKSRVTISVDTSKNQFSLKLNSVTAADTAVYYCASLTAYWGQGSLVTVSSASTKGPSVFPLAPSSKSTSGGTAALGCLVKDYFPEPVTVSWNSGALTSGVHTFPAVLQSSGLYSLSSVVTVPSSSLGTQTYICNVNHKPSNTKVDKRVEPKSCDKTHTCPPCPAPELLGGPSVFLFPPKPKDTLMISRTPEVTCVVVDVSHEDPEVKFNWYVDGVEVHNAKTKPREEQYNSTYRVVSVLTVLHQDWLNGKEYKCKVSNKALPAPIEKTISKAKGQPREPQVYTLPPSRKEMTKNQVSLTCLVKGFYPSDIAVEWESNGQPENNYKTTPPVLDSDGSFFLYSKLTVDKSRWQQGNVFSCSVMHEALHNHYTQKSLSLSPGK
light: B1 light
notes: Single Fc substitution in the 5F11 antibody; EU numbering; copies: 2 + 2

In this experiment the target is T1, human FcRn (recombinant soluble receptor, 6XHis, co-expressed with beta2 microglobulin) (human, UniProt P61769 21-119).
T1 construct: purified on nickel; also called huFcRn
T1 sequence (chain, as listed by the source limits assumed, chain 1 of 2): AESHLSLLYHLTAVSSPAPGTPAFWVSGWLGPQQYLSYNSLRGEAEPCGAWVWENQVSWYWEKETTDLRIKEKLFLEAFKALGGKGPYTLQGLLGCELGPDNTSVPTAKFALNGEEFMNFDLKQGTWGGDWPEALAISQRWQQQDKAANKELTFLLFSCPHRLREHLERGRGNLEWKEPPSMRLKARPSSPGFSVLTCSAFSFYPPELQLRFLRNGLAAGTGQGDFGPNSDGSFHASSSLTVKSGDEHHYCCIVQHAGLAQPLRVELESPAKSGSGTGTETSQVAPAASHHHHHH
T1 sequence (P61769 21-119 limits assumed, chain 2 of 2): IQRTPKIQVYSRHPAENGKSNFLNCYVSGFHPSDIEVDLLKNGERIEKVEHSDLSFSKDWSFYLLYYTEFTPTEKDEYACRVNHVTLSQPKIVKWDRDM
As to the kind of experiment: Luminex assay, pH 6.
Turning to B1, the “FcRn binding at pH 6 (fold difference vs wild type anti-CD30)” value is 1.3 fold vs wild type.

With B2, the “FcRn binding at pH 6 (fold difference vs wild type anti-CD30)” value turned out to be 1.1 fold vs wild type.

As for B3, the “FcRn binding at pH 6 (fold difference vs wild type anti-CD30)” value was 1.7 fold vs wild type.

Consider B4, for which the “FcRn binding at pH 6 (fold difference vs wild type anti-CD30)” value was determined as 0.2 fold vs wild type. For B5 the value was 0.6 fold vs wild type.

On to B6, for which the “FcRn binding at pH 6 (fold difference vs wild type anti-CD30)” value is 1.1 fold vs wild type.

For the molecule B7, the “FcRn binding at pH 6 (fold difference vs wild type anti-CD30)” value stood at 0.6 fold vs wild type. With B8 the figure was 1.6 fold vs wild type. Take B9: the “FcRn binding at pH 6 (fold difference vs wild type anti-CD30)” value worked out at 1.4 fold vs wild type. Regarding B10, the “FcRn binding at pH 6 (fold difference vs wild type anti-CD30)” value stood at 1.3 fold vs wild type. With B11 the figure was 1.4 fold vs wild type.
